Measurements: patent US20230287402A1

Target: GFP-60mer nanocages
Assay: absorbance at 490 nm and 570 nm of the complex purified by size exclusion chromatography

GBP-mScarlet, purified fusion of the anti-GFP nanobody and mScarlet (VHH)
ratio GFP/mScarlet in the purified complex: 0.95
